Results on 5 molecules are retold here after patent publication US20140178935A1 (AVEO PHARMACEUTICALS, published 2014).

Assay [1] deals with T1, recombinant human HGF (R&D Systems, Catalog No. 294-HGN-025) (human, UniProt P14210 32-728). The assay is described as follows: cell-based or functional assay.
The target of assay [2] is T1, recombinant human HGF (R&D Systems, …). The assay is described as follows: cell-based or functional assay. The source holds these as a separate data set.
Assay [3] addresses T2, recombinant mouse HGF (R&D Systems) (mouse, UniProt Q08048 33-728).
T2 construct: Bought protein, construct not described; also called rmHGF (R&D Systems); murine HGF
The assay is described as follows: SPR, antibody immobilized, HGF protein injected, 25 C. The method, then:
(§1) Each antibody was immobilized on a carboxymethylated dextran CM5 sensor chip (BIAcore, Catalog No. BR-1006-68) by amine coupling (BIAcore, Catalog No. BR-1000-50) using a standard coupling protocol according to manufacturer's instructions.
(§2) Analyses were performed at 25° C. using PBS (GIBCO, Catalog No. 14040-133) containing 0.05% surfactant P20 (BIAcore, Catalog No. R-1000-54), 2 mg/mL BSA (EMD, Catalog No. 2930) and 10 mg/mL CM-Dextran Sodium salt (Fluka, Catalog No. 86524) as running buffer. […] The resulting binding was determined as resonance units (RU) over baseline 30 seconds after the end of injection. […] Non-specific binding was monitored by comparing binding to a control surface where mouse IgG (Rockland, Catalog No. 010-0102) was immobilized using the same amine coupling procedure.
On the technique in general: In SPR one partner is held on a chip, and binding of the other changes the refractive index at the surface.

Assay [4] addresses T3, recombinant mouse-human-mouse (mhm) chimeric HGF protein containing the human V495-L585 HGF sequence disposed … (mouse-human-mouse chimera, UniProt Q08048 56-728).
T3 construct: CHO supernatant was used; also called mhm chimera (V495-L585); MHM chimera (495-585)
T3 chain: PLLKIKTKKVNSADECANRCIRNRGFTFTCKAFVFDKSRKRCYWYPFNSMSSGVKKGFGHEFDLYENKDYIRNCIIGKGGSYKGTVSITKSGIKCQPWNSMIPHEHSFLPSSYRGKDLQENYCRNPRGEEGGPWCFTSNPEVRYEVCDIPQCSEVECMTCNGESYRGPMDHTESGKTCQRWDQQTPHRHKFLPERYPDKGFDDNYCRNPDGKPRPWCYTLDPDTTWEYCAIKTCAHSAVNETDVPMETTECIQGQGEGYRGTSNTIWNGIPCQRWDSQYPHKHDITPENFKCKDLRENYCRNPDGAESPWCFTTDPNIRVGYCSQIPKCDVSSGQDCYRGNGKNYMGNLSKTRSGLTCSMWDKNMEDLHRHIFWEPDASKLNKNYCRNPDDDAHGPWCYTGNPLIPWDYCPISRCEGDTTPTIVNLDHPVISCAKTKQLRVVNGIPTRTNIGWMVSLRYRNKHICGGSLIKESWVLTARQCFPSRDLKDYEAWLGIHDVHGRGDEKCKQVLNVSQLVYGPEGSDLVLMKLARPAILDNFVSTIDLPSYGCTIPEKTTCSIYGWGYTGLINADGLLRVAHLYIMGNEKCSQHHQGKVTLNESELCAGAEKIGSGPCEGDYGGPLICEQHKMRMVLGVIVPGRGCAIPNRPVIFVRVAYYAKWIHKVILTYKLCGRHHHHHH
The description is as above. The method, then: as §1, §2

Assay [5] has as its target hHGF-Fc G555E (recombinant hHGF protein containing a glycine to glutamate substitution at position 555) (human). Described as above. The method, then:
as §1, §2

In assay [6] the target is hHGF-Fc C561R (recombinant hHGF protein containing a cysteine to arginine substitution at position 561) (human). The description is as above. On the procedure:
as §1, §2

Assay [7] concerns the target T1, recombinant human HGF (R&D Systems, …). The experiment in a line: SPR, antibody captured by anti-mouse Ig, HGF injected, 25 C. The method, then: Rabbit anti-mouse immunoglobulins (BIAcore, Catalog No. BR-1005-14) were immobilized on carboxymethylated dextran CM5 sensor chips (BIAcore, Catalog No. BR-1006-68) by amine coupling (BIAcore, Catalog No. BR-1000-50) using a standard coupling protocol according to manufacturer's instructions. The analyses were performed at 25° C. using PBS (GIBCO, Catalog No. 14040-133) containing 0.05% surfactant P20 (BIAcore, Catalog No. BR-1000-54), 2 mg/mL BSA (EMD, Catalog No. 2930), and 10 mg/mL CM-Dextran Sodium salt (Fluka, Catalog No. 86524) as running buffer.
The antibodies were captured in an individual flow cell at a flow rate of 10 μL/min. Injection time was variable for each antibody to yield approximately 20 RU of antibody captured for each cycle. […] The dissociation phase was monitored for 15 or 90 minutes, depending on concentration. The surface then was regenerated with 10 mM Glycine-HCl, pH 1.7 (BIAcore, Catalog No. BR-1003-54) injected for 3 minutes at a flow rate of 60 μL/min before another cycle was initiated.
Kinetic parameters were determined using the kinetic function of the BIAevalutation software with reference subtraction.

Assay [8] shares this target. The assay is described as follows: competition ELISA (DELFIA): antibody inhibits c-Met binding to plate-coated HGF. The method, then: The plates then were blocked with 200 μL of 5% non-fat dry milk in PBS for 1 hour at room temperature. […] 100 μL of sample per well was transferred to the assay plate and incubated overnight at 4° C.
The resulting plates then were washed three times with PBS-0.1% Tween 20, and incubated for 1 hour at room temperature with Eu-labeled Streptavidin (Wallac, Catalog No. 1244-360) diluted 1:1000 in DELFIA assay buffer (Wallac, Catalog No. 4002-0010). The resulting plates were washed 3 times with DELFIA wash solution (Wallac, Catalog No. 4010-0010) and incubated with 100 μL/well DELFIA enhancement solution (Wallac #4001-0010) for 15 minutes at room temperature with agitation.
The plates were read on Victor³V instrument (Perkin Elmer) using the Europium method.
A general note: In an ELISA, binding on a coated surface is turned into a signal by an enzyme label.

Chain of hHGF-Fc C561R (recombinant hHGF protein containing a cysteine to arginine substitution at position 561) (human) (chain, as listed by the source C561R C561R limits assumed): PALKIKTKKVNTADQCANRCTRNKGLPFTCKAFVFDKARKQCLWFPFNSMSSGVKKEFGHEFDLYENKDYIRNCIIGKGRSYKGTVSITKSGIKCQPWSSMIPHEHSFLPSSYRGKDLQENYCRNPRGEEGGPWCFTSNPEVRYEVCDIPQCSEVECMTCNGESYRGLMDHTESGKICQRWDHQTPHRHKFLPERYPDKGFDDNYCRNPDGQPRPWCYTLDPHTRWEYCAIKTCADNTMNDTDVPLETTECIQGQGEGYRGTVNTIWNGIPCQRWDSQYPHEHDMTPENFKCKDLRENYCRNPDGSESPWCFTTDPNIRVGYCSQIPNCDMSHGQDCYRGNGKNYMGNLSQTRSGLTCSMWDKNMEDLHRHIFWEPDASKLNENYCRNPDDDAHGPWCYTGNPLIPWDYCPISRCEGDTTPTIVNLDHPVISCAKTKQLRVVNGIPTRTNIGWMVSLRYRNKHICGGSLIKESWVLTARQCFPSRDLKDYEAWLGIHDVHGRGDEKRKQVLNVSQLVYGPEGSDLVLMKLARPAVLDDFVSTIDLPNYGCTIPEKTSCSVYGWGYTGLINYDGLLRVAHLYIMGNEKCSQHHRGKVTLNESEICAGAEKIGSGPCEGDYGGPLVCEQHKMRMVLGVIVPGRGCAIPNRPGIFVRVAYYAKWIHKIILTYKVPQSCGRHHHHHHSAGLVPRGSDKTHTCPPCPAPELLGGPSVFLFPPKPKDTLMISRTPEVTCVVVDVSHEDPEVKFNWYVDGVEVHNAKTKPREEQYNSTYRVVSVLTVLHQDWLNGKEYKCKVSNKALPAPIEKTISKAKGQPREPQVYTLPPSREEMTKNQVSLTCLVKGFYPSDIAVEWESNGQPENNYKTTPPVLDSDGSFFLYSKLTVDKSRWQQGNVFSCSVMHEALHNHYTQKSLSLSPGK
T1 sequence (P14210 32-728 limits assumed): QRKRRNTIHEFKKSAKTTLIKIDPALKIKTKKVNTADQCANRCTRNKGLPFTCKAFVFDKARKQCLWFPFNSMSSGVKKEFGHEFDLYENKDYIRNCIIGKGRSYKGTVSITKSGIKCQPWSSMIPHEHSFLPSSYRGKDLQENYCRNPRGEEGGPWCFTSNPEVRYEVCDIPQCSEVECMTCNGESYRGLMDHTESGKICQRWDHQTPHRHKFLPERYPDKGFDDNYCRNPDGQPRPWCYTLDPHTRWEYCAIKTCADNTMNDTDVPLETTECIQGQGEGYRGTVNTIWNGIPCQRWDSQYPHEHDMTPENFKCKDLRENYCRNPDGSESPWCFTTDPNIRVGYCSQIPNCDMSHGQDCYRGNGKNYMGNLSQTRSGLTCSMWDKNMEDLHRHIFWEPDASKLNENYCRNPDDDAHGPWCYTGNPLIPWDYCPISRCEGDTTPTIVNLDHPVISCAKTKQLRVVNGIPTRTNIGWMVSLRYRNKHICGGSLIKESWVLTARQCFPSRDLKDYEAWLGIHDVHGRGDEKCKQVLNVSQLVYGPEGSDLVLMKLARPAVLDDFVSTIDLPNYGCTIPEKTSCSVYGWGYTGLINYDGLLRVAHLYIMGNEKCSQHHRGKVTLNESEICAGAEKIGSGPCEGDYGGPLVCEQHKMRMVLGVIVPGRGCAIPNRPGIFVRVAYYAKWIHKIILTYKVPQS
T2 sequence (Q08048 33-728 limits assumed): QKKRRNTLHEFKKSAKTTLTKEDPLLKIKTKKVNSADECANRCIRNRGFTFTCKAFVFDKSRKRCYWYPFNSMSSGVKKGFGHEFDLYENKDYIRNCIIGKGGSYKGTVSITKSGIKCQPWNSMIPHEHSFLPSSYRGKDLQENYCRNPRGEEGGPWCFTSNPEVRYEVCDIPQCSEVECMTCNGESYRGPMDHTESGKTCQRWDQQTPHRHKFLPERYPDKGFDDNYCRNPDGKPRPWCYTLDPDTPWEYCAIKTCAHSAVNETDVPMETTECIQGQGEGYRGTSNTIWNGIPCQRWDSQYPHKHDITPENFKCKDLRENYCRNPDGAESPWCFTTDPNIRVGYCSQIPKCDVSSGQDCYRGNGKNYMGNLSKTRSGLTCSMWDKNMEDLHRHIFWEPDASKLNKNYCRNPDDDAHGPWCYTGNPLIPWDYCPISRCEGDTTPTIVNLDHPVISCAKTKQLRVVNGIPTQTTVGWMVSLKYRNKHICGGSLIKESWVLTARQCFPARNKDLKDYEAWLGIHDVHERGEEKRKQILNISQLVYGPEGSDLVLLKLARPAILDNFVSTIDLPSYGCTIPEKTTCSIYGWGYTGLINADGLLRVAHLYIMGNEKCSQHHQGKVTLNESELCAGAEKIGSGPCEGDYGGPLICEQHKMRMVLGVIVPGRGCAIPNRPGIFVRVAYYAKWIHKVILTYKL
Chain of hHGF-Fc G555E (recombinant hHGF protein containing a glycine to glutamate substitution at position 555) (human) (chain, as listed by the source G555E G555E limits assumed): as the sequence (chain, as listed by the source C561R C561R limits assumed) above, with G501E, R507C counted along it

B1: anti-hHGF monoclonal antibody 3B6 (antibody, mouse IgG1, kappa, V domains shown)
VH: QVQLQQSGAELVRPGSSVKISCKASGYVFSSYWMNWVKQRPGQGLEWIGQIYPGDGDSNYNGNFKGKATLTADKSSSTAYMQLSSLTSEDSAVYFCASQLGLRENYFDYWGQGTTLTVSS
VL: DIKMTQSPSSMYASLGERVTITCKASQDIKSYLSWFQQKPGKSPKTLIYRVNRLVDGVPSRFSGSGSGQDSSLTITSLENEDMGIYYCLQYDEFPFTFGGGTKLEIKR
notes: Murine IgG1 kappa from hybridoma
As to B1, the “IC50, neutralization of HGF stimulated BrdU incorporation in 4 MBr-5 cells” value (“IC50, neutralization” for short) in assay [1] turned out to be 36.1 nM. In addition, in assay [2], the “EC50, inhibition of HGF-stimulated c-Met phosphorylation in PC-3 cells, Average of Two Trials” value (shortened to “EC50, inhibition”) was 1.01 nM. Further, the binding result in assay [3] is given as “no binding”; in assay [4], “no binding”; in assay [5], “binds”; in assay [6] it was “binds”. In assay [7], the Kd – broadly, a measure of binding affinity in units of concentration – amounted to 0.017 nM. For the same molecule, the dissociation rate constant (koff) (in general, a measure of how fast the partners let go of each other) in assay [7] stood at 3.9e-05 s⁻¹. For the same molecule, the association rate constant (kon) (in general, the rate constant with which the complex forms) in assay [7] was found to be 2e+06 M⁻¹ s⁻¹.

B2: anti-hHGF monoclonal antibody 1A3 (antibody, mouse IgG1, kappa, V domains shown)
VH: EVQLVESGGGLVQPGGSLKLSCAASEFTFSNYYMSWVRQTPEKRLQWVAYISPGGGSSYYPASVKGRFTISRDNAKNTLYLQMSSLKSEDTAMYYCARQGDGYYGDYAMDYWGQGTSVTVSS
VL: DIQMTQSPASLSVSVGETVTITCRASENIYSNLAWYQQKQGKSPQLLVYAATNLADGVPSRFSGSGSGTQFSLKINSLQSEDFGTYYCQHFWGTPYTFGGGTKLEIKR
notes: as for B1
With B2, the “IC50, neutralization” value in assay [1] stood at 4.69 nM. Further, the “EC50, inhibition” value in assay [2] stood at 0.684 nM. Moreover, the binding result in assay [3] is given as “no binding”; in assay [4], “no binding”; in assay [5] it was “binds”; in assay [6] it was “binds”. Moreover, the Kd in assay [7] was found to be 0.0301 nM. The koff in assay [7] stood at 5.2e-05 s⁻¹. Besides, in assay [7], the on-rate constant (kon) is 1.7e+06 M⁻¹ s⁻¹. Also, the half-maximal inhibitory concentration (IC50) (in general, the concentration needed to halve the response being measured) in assay [8] worked out at 5.65 nM.

B3: anti-hHGF monoclonal antibody 3A12 (antibody, mouse IgG1, kappa, V domains shown)
VH: EVQLVESGGGLVQPGGSLKISCAASGFTFSNYFMSWVRQTPEKRLEWVAYISSGGGSTYYPDSVKGRFTISRDNAKNTLYLQMNSLKSEDTAMYYCVRQGDGYYGDYAMDYWGQGTSVTVSS
VL: DIQMTQSPASLSVSVGETVTITCRASENIYINLAWYQQKQGKSPQLLVHAATKLADGVPSRFSGSGSGTQYSLKINSLQSEDFGSYYCQHFWGTPYTFGGGTKLEIKR
notes: as for B1
Regarding B3, the “IC50, neutralization” value in assay [1] came to 30.3 nM. Moreover, the “EC50, inhibition” value in assay [2] stood at 2 nM. Moreover, the binding result in assay [3] is given as “no binding”; in assay [4], “no binding”; in assay [5] it was “binds”; in assay [6], “binds”. The Kd in assay [7] came out at 0.103 nM. In assay [7], the koff amounted to 0.00016 s⁻¹. Besides, in assay [7], the association rate constant (kon) worked out at 1.6e+06 M⁻¹ s⁻¹. Further, the IC50 in assay [8] worked out at 5.26 nM.

B4: anti-hHGF monoclonal antibody 3D11 (antibody, mouse IgG1, kappa, V domains shown)
VH: QVQLKESGPGLVAPSQSLSITCTVSGFSLTSYSLHWVRQPPGKGLEWLGVIWAGGNTNYNSSLMSRLTIRKDNSKSQVFLKMNSLQTDDTAMYYCARERFAYWGQGTLVTVSA
VL: QIVLTQSPAIMSAYPGEKVTMTCSASSSVSYMHWYQQKSGTSPKRWIYDTSKLASGVPARFSGSGSGTSYSLTISSMEAEDAATYYCQQWSSNPLTFGAGTKLELKR
notes: as for B1
Turning to B4, in assay [1], the “IC50, neutralization” value was 51.1 nM. For the same molecule, the “EC50, inhibition” value in assay [2] turned out to be 2.28 nM. Besides, the binding result in assay [3] is reported as “no binding”; in assay [4] it was “no binding”; in assay [5], “binds”; in assay [6] it was “binds”. For the same molecule, the IC50 in assay [8] worked out at 5.66 nM.

B5: anti-hHGF monoclonal antibody 2F8 (antibody, mouse IgG1, kappa, V domains shown)
VH: QVQLKQSGAELVRPGTSVKMSCKASGYTFTTYYIHWVNQRPGQGLEWIGKIGPGSGSTYYNEMFKDKATLTVDTSSSTAYMQLSSLTSDDSAVYFCARRGLGRGFDYWGQGTTLTVSS
VL: DIVLTQSPASLAVSLGQRATISCKASQSVDYDGNSYINWYQQKPGQPPKVLIYVASNLESGIPARFSGSGSGTDFTLNIHPVEEEDAATYYCQQSIEDPPTFGAGTKLELKR
notes: as for B1
On to B5, for which the “IC50, neutralization” value in assay [1] turned out to be 19.2 nM. For the same molecule, the “EC50, inhibition” value in assay [2] is 1.39 nM. Besides, the binding result in assay [3] is “binds”; in assay [4], “no binding”; in assay [5] it was “binds”; in assay [6], “binds”. Moreover, the concentration for half-maximal inhibition (IC50) in assay [8] was 5.36 nM.
